Series [1] has as its system stomata of Arabidopsis epidermal peels. Put plainly: Stomatal aperture in epidermal peels of Col-0 and AtGCN4 overexpressor lines. It counts as cell-based. Conditions: coronatine treatment. Here is the method:
A representative histogram is depicted of stomatal aperture in Arabidopsis plant epidermal peels from wild-type Col-0 and GCN4-overexpressing (AtGCN4-OE6 and AtGCN4-OE16) lines measured 4 hours after treatment with MES buffer, COR, ABA, or COR+ABA.
Upon detection of PAMPs, stomata rapidly closes to prevent entry of the pathogen into apoplast (Melotto et al., 2006; Lee et al., 2013). […] Epidermal peels of AtGCN4 overexpressing lines were used to investigate whether stomata reopen after treatment with MES buffer (stomata opening buffer; control) or the host pathogen P. syringae pv. tomato DC3000. In wild-type Col-0, stomata reopened 3 hpi, while in the AtGCN4 overexpressor lines (AtGCN4-OE6 and AtGCN4-OE16), stomata remained closed even 4 hpi with P. syringae pv. tomato DC3000. Stomatal aperture was measured after ABA and coronatine treatments in order to investigate stomatal function in AtGCN4 overexpressor lines. ABA treatment induces stomatal closure in plants. After ABA treatment, the stomatal aperture size was reduced due to closing in both wild-type Col-0 and the AtGCN4 overexpressor lines.

The target of series [2] is T1, Jasmonate-Zim-Domain Protein 9 (JAZ9, At1g70700), full-length, Q8W4J8.
T1 chain: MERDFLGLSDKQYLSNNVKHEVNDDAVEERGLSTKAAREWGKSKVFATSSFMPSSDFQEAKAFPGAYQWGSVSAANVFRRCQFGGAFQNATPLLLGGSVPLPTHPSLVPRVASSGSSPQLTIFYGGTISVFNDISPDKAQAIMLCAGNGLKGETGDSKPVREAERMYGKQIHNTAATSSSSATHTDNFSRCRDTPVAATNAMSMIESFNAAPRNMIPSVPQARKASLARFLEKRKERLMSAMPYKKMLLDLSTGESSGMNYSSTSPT

The target in series [3] is T2, AtGCN4 (Arabidopsis thaliana GCN4, general control non-repressible 4, At3G54540) (Arabidopsis thaliana, UniProt Q9M1H3 1-723).
T2 construct: Yeast two-hybrid fusion; in BiFC the C-terminal half of YFP was fused to the N-terminus of AtGCN4 (c-YFP-AtGCN4); also called c-YFP-AtGCN4
T2 sequence: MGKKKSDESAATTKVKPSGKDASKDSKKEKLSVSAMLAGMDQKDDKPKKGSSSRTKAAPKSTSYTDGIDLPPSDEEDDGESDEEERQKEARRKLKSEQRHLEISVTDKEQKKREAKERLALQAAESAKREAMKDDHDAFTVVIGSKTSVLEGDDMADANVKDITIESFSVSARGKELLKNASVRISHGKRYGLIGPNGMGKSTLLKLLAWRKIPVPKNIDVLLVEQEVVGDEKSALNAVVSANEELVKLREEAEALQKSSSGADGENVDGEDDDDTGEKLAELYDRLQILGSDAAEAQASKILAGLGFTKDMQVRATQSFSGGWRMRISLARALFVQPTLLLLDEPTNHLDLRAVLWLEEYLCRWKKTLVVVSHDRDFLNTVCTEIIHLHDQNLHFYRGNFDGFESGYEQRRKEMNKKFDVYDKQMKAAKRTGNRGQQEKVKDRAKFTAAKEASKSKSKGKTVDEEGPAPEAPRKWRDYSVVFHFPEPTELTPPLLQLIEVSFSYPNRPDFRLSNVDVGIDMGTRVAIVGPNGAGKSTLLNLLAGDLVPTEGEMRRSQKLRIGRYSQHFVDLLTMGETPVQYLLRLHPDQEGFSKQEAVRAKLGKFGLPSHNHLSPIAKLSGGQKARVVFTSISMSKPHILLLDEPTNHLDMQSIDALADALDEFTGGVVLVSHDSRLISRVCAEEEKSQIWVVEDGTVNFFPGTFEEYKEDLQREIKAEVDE
The series can be described thus: title of Example 19 (yeast two-hybrid, BiFC). An excerpt:
Stable transgenic lines were developed expressing GFP fused to the C-terminal end of AtGCN4 and driven under its native promoter. AtGCN4-GFP localized in guard cells, plasma membrane, and cytoplasm. Without being limited by theory, as AtGCN4 localized in the plasma membrane and guard cells, and plays role in the stomatal function, the present inventors reasoned that AtGCN4 interacts with other proteins responsible for stomatal function, such as SLAC1 and RIN4. SLAC1 closes stomata on ABA signaling (Vahisalu et al., 2008) and RIN4 activates a plasma membrane H⁺-ATPase and opens stomata (Liu et al., 2009). A yeast two-hybrid system between GCN4:SLAC1 and GCN4:RIN4 was used to investigate potential protein-protein interactions. AtGCN4 interacted with SLAC1 and RIN4. A BiFC assay (Hu et al., 2002) was used to verify these interactions in planta. AtGCN4 was co-transformed in yeast with either SLAC1 or RIN4 to observe protein-protein interaction using a yeast two-hybrid system. […] Protein-protein interactions were observed as yellow fluorescence with an equivalent bright field image. […] Protein-protein interactions were observed as yellow fluorescence while the plasma membrane was visualized as red fluorescence. […]

Take `CC[C@H]1C=C(C(=O)N[C@@]2(C(=O)O)C[C@@H]2CC)[C@H]2CCC(=O)[C@H]2C1` [coronatine]: the Stomatal aperture size result in series [1] (Col-0 plants) is reported as “increased aperture size”; in series [1] (GCN4 overexpressor lines), “did not increase”.

B1: His-tagged NHR1A protein expressed in E. coli (full-length recombinant AtNHR1A, N-terminal His-tagged fusion protein) (protein)
chain: MTIVSTCCPFGLSNVTKCINFVQIKEAKTMVKYNFKKITVVPNGKQFVDIVLSRTQRQTPTVVHKGDRICKLRSFYMRKVKFTESNFNEKLSAIIDEFPRLKEIQPFYEDLLHVLYNKDHYKLALGQVNTAKNKISKIAMDYVKLLKHGDSLYRCKCLKVAALGRMCTVMKGIGPSLAYLEQVRQHIARLPSIDPNTRTLLICGCPNVGKSSFMNKVTRADVAVQPYAFTTKSLFLGHTDYKCLRYQVIDTPGLLDREIEDRNIIELCSITALAHIRAAVLFFLDISGSCGYTIAQQASLFHNIKSVFKNKPLVIVCNKTDLMPMENLSEEDRKLIEEMKDEAMKTEMGASEEAVILEMSTLTEEGVMSRLLDQRVAAKMKSKKIGDHLNRFHVAMPKSRDDQERLPCIPQVAGEKEKRKTEKDLEDENGGAGVYSASLKKNYILAKEEWKDDIIPEICDCHNVADFVDSDILNRLEELTSEESLRKAEEEEVGFEIEGEELTEKEKNDLAAIRKKKALLIEESRLKKSNAQNRAAVPRKFDKDKKFTRKRMGRELSSLGLDPSSALNRARSKSRGRKRERYDDLSNDAMDVDVNDDEQHKKKKMCLRSKSRSLSRSRSVSRPPHEVVPGEGFKDSSQKIKAIKIGHKSHRKRDKAARRGEADRVIPSLKPKHLFSGKRGNGKNQRR
For the molecule B1, in series [2], the “rate of GTP hydrolysis” value is on record as “in the presence of JAZ9, the rate of GTP hydrolysis significantly decreased”.

B2: SLAC1 (Slow Anion Channel-Associated 1) (other, UniProt Q9LD83 1-556, looked up)
chain: MERKQSNAHSTFADINEVEDEAEQELQQQENNNNKRFSGNRGPNRGKQRPFRGFSRQVSLETGFSVLNRESRERDDKKSLPRSGRSFGGFESGGIINGGDGRKTDFSMFRTKSTLSKQKSLLPSIIRERDIENSLRTEDGETKDDSINENVSAGRYFAALRGPELDEVKDNEDILLPKEEQWPFLLRFPIGCFGICLGLSSQAVLWLALAKSPATNFLHITPLINLVVWLFSLVVLVSVSFTYILKCIFYFEAVKREYFHPVRVNFFFAPWVVCMFLAISVPPMFSPNRKYLHPAIWCVFMGPYFFLELKIYGQWLSGGKRRLCKVANPSSHLSVVGNFVGAILASKVGWDEVAKFLWAVGFAHYLVVFVTLYQRLPTSEALPKELHPVYSMFIAAPSAASIAWNTIYGQFDGCSRTCFFIALFLYISLVARINFFTGFKFSVAWWSYTFPMTTASVATIKYAEAVPGYPSRALALTLSFISTAMVCVLFVSTLLHAFVWQTLFPNDLAIAITKRKLTREKKPFKRAYDLKRWTKQALAKKISAEKDFEAEEESHH
notes: Yeast two-hybrid fusion; in BiFC the N-terminal half of YFP was fused to the C-terminus of SLAC1 (SLAC1-nYFP); also called SLAC1-nYFP
Take B2: the binding result in series [3] is “binds”.

B3: RIN4 (Rpm1 Interaction Protein 4) (other, UniProt Q8GYN5 1-211, looked up)
chain: MARSNVPKFGNWEAEENVPYTAYFDKARKTRAPGSKIMNPNDPEYNSDSQSQAPPHPPSSRTKPEQVDTVRRSREHMRSREESELKQFGDAGGSSNEAANKRQGRASQNNSYDNKSPLHKNSYDGTGKSRPKPTNLRADESPEKVTVVPKFGDWDENNPSSADGYTHIFNKVREERSSGANVSGSSRTPTHQSSRNPNNTSSCCCFGFGGK
notes: Yeast two-hybrid fusion; in BiFC the N-terminal half of YFP was fused to the C-terminus of RIN4 (RIN4-nYFP); also called RIN4-nYFP
For B3, in series [3], the binding result was “binds”.

For the origin of these results see patent US20170218389A1, “METHODS AND COMPOSITIONS FOR STOMATA REGULATION, PLANT IMMUNITY, AND DROUGHT TOLERANCE” (priority 2016, published 2017).
